Positions count from the first letter of the chain named. Entries after “also recorded” stand apart in the source; their conditions may differ.
B1: JO-1: dimeric protein that contains the wild-type Ad3 fiber knob and a self-dimerization domain (SEQ ID NO:27) (protein, listed as Homo sapiens)
chain: MKVSALKEKVSALKEKVSALKEKVSALKEKVSALKEGSGGGSGGGSGGGSNSIALKNNTLWTGPKPEANCIIEYGKQNPDSKLTLILVKNGGIVNGYVTLMGASDYVNTLFKNKNVSINVELYFDATGHILPDSSSLKTDLELKYKQTADFSARGFMPSTTAYPFVLPNAGTHNENYIFGQCYYKASDGALFPLEVTVMLNKRLPDSRTSYVMTFLWSLNAGLAPETTQATLITSPFTFSYIREDD
modifications: dimer
B2: JO-4 (protein)
chain: B1 chain with Y177F

What was measured:
[1] = test system: TC1-hDSG2 tumors; assay: PLD therapy with repeated injection in immunocompetent mice with TC1-hDSG2 tumors; assay type: in vivo, hDSG2 transgenic mice; conditions: 2 mg/kg i.v. one hour before PLD 1.5 mg/kg; 3rd and 4th cycle, serum antibodies detectable
Description: (§1) FIG. 11A-11C. Pharmacokinetics, toxicity, and immunogenicity of JO-4. FIG. 11A) Serum clearance of JO-1 and JO-4. hDSG2 transgenic mice with subcutaneous TC1-hDSG2 tumors (˜600 mm^3) were intravenously injected with JO-1 or JO-4 (2 mg/kg) and serum samples were analyzed for by ELISA. N=3. Note that the y-axis has a log scale. FIG. 11B1) Lymphocyte and FIG. 11B2) platelet counts in hDSG2/TC1-hDSG2 transgenic mice after JO-1 or JO-4 injection. N=3. FIG. 11C) Therapy studies in immunocompetent hDSG2 transgenic mice with TC1-hDSG2 tumors. When tumors reached a volume of ˜80 mm^3, JO-1 or JO-4 (2 mg/kg) or PBS was injected intravenously followed one hour later by PLD/Doxil (i.v. 1.5 mg/kg). Treatment was repeated as indicated by arrows. Tumors were then allowed to re-grow for about two weeks. From day 15 on serum anti-JO-1/J)—4 antibodies were detectable by ELISA. Two more treatment cycles were performed at day 28 and day 35. […] The difference between JO-1/PLD vs JO-4/PLD is significant from day 31 on. N=10.
(§2) A549, MDA-MB-231, and ovc316 xenograft tumors were established by injection of the corresponding tumor cells into the mammary fat pad (1:1 with Matrigel) of CB17 mice. […] Tumor volumes were measured three times a week. […]
JO-1 and JO-4 are virus-derived proteins and immunogenic. In immunocompetent mice, serum IgG antibodies against these proteins can be detected by ELISA two weeks after injection (5). […]

[2] = test system: ovc316 xenograft tumors; assay: Enhancement of PLD therapy in ovc316 ovarian cancer xenograft tumors; assay type: in vivo, CB17 mice; conditions: weekly
Description: FIG. 10A-10C. Combination of affinity-enhanced JO-1 versions with chemotherapy. FIG. 10A) Enhancement of irinotecan (I) therapy. The experimental setting was the same as in FIG. 5B. […] N=5. […] Mammary fat pad tumors were established from primary ovarian cancer ovc316 cells. Treatment was started when tumors reached a volume of 100 mm^3. Mice were injected intravenously with 2 mg/kg JO-1 or with 0.5 mg/kg JO-4, followed by an intravenous injection of PEGylated liposomal doxorubicin (PLD) (1 mg/kg) one hour later. Treatment was repeated weekly. […] A total of 4×10^6 TNBC MDA-MB-231 cells were injected into the mammary fat pad of CB17 SCID-beige mice. JO-4 (2 mg/kg) was intravenously injected 1 hour before the application of cetuximab (C) (10 mg/kg, i.p.) and nab-paclitaxel (nab-P) (5 mg/kg, i.v.). Treatment was given weekly. N=10 P<0.01 at day 25 for nab-P+C vs JO-4+nab-P+C.
as §2, with “mice. TC1-DSG2 tumors were established by subcutaneous injection of TC1-DSG2 cells into DSG2 transgenic mice.” for “mice.”

[3] = Serum clearance of JO-1 and JO-4 by ELISA; assay type: in vivo, hDSG2 transgenic mice; conditions: 2 mg/kg i.v.; mice with TC1-hDSG2 tumors
Description: as §1
Two of the affinity enhanced version of JO-1, Y293D and V250F were analyzed in in vivo assay. We called these mutants JO-2 and JO-4, respectively. The first study was performed in a xenograft model derived from A549 cells similar to the study described for FIG. 5B. […] We also analyzed hematological parameters after i.v. JO-1 and JO-4 injection.

[4] = Blood chemistry and blood cell counts after i.v. injection; assay type: in vivo, hDSG2 transgenic mice; conditions: for Blood chemistry / Lymphocyte and platelet number after injection: after i.v. injection, 2 mg/kg
Description: as §1
Two of the affinity enhanced version of JO-1, Y293D and V250F were analyzed in in vivo assay. We called these mutants JO-2 and JO-4, respectively. The first study was performed in a xenograft model derived from A549 cells similar to the study described for FIG. 5B. […] Additional studies were performed in xenograft tumors derived from ovc316 cells (30, 32). Ovc316 cells are Her2/neu positive epithelial tumor cells derived from an ovarian cancer biopsy. These cells can undergo EMT and the reverse process, mesenchymal-to-epithelial-transition (MET), under specific conditions in vitro and in vivo. A subfraction of ovc316 cells that is positive for Nanog, CD133, and E-cadherin is enriched for cancer stem cells, i.e. self-renewing cells with pluripotent potential and tumor forming ability (30). Ovc316 cells therefore closely model the heterogeneity and plasticity seen in tumors in situ. […] Finally, we tested JO-4 in a model for triple-negative breast cancer (TNBC). TNBC is characterized by a lack or minimal expression of estrogen receptor (ER), progesterone receptor (PR) and the absence of Her2/neu overexpression. TNBC accounts for 15% of all breast cancers. Overall survival is poor compared with that in patients who have other phenotypes. A characteristic feature of TNBC is high levels of DSG2 and epithelial junctions. Promising clinical results in the treatment of TNBS have been achieved with nanoparticle, albumin-conjugated paclitaxel (nab-paclitaxel/Abraxane™) alone or in combination with the EGFR-targeting mAb cetuximab/Erbitux™ (38). […] Because of its therapeutic relevance, we further studied JO-4 in an adequate mouse tumor model. […] These mice were subcutaneously implanted with syngeneic TC1-hDSG tumors. When tumors reached a volume of ˜600 mm^3, JO-1 or JO-4 was intravenously injected for safety and efficacy studies. […] After one hour post-injection JO-1 and JO-4 concentration reached a plateau with −100 ng/ml. We also analyzed hematological parameters after i.v. JO-1 and JO-4 injection.

| Molecule | Enhancing effect on PLD therapy after repeated treatment cycles [1] | Enhancement of PLD therapy ([2]; 2 mg/kg i.v. one hour before PLD 1 mg/kg) | Decline of serum concentration within an hour after injection [3] | Blood chemistry [4] | Lymphocyte and platelet number after injection [4] | Enhancement of PLD therapy ([2]; 0.5 mg/kg i.v. one hour before PLD 1 mg/kg) | Lymphocyte and platelet counts at nadir compared with JO-1 ([4]; 24 hours p.i., p<0.01) | Return of lymphocyte and platelet counts to normal levels ([4]; compared with JO-1 treated animals) |
| --- | --- | --- | --- | --- | --- | --- | --- | --- |
| B1 | enhancing effect; also recorded: continued to be effective | significantly increased the treatment efficiency | declined more than one order of magnitude | did not show abnormal changes | decreased early after injection |  |  |  |
| B2 | significantly stronger; also recorded: continued to be effective |  | declined more than one order of magnitude; also recorded: significantly greater; also recorded: rapidly decrease | did not show abnormal changes | decreased early after injection; also recorded: transient reduction | enhances PLD therapy | significantly lower numbers | faster |
